The record followed here is patent publication US5574016A, “Peptide compound and a process for the preparation thereof” (Fujisawa Pharmaceutical Co., Ltd., priority 1991, dated 1996).

The assay deals with thrombosis model in Guinea-pig (FeCl3 carotid artery thrombosis). The assay can be described thus: Enhancement of thrombolytic activity of TPA in thrombosis model in Guinea-pig. In kind it is in vivo, Male Hartley guinea-pigs. The conditions noted are these: Group 1 (5 animals): saline and r-TPA 0.30 mg/kg i.v. bolus +1.0 mg/kg/hour i.v. infusion; reperfusion = 50 % recovery of carotid blood flow velocity; recorded up to 90 minutes. From the text:
Male Hartley guinea-pigs (500-800 g) were anesthetized with urethane (1.25 g/kg i.p.). The carotid artery and cervical vein were carefully exposed after a midline cervical insision. The vein was cannulated with a polyethylene catheter (PE50; Becton Dikinson, U.S.A.) for the injection and infusion of the drug. A pulse Dopplar flow probe was placed around the carotid artery to record the blood flow velocity to moniter thrombus formation and thrombolysis. Carotid artery thrombosis was induced by the FeCl3 method as follows;
a square (1 mm×1 mm) of ADVANTEC No. 2 filter paper immersed in 20% FeCl3 was placed on the carotid artery which became occluded by a thrombus.
When the blood flow velocity decreased to zero, the filter paper was removed from the vessel and the carotid artery were washed with saline more than 4 times. The test compound or saline was injected 3 minutes after the washing and 3 minutes later r-TPA [Actilyse (trademark); Boehringer Ingelheim Ltd] was infused for 60 minutes.
The animals were divided into the following groups;
Group 1 (5 animals): Saline and r-TPA at 0.30 mg/kg i.v. bolus +1.0 mg/kg/hour i.v. infusion […]
The reperfusion was defined as 50 % recovery of carotid artery blood flow velocity compared with the initial value. The blood flow was recorded up to 90 minutes.

B1: r-TPA: r-TPA [Actilyse (trademark); Boehringer Ingelheim Ltd], tissue plasminogen activator, infused for 60 minutes (protein, UniProt P00750 36-562, looked up)
Tissue-type plasminogen …: SYQVICRDEKTQMIYQQHQSWLRPVLRSNRVEYCWCNSGRAQCHSVPVKSCSEPRCFNGGTCQQALYFSDFVCQCPEGFAGKCCEIDTRATCYEDQGISYRGTWSTAESGAECTNWNSSALAQKPYSGRRPDAIRLGLGNHNYCRNPDRDSKPWCYVFKAGKYSSEFCSTPACSEGNSDCYFGNGSAYRGTHSLTESGASCLPWNSMILIGKVYTAQNPSAQALGLGKHNYCRNPDGDAKPWCHVLKNRRLTWEYCDVPSCSTCGLRQYSQPQFRIKGGLFADIASHPWQAAIFAKHRRSPGERFLCGGILISSCWILSAAHCFQERFPPHHLTVILGRTYRVVPGEEEQKFEVEKYIVHKEFDDDTYDNDIALLQLKSDSSRCAQESSVVRTVCLPPADLQLPDWTECELSGYGKHEALSPFYSERLKEAHVRLYPSSRCTSQHLLNRTVTDNMLCAGDTRSGGPQANLHDACQGDSGGPLVCLNDGRMTLVGIISWGLGCGQKDVPGVYTKVTNYLDWIRDNMRP
In the case of B1, the “number of animals in which reperfusion was observed” value worked out at 1.
